Results from paper PMC9750158 (Science Advances, 2022).

Legend:
[1] = target: T1, WAVE1(1-230) (human, UniProt Q92558 1-230); experiment: reconstitution and co-purification of subcomplexes and pentamer
T1 sequence: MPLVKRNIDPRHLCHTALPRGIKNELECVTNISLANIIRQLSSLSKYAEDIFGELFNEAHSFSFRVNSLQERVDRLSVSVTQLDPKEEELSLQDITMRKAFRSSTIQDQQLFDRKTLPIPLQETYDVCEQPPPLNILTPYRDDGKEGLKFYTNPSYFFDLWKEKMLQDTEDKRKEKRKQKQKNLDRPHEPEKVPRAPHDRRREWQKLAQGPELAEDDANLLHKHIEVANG

[2] = target: Sra1/Nap1 dimer (human, UniProt Q7L576;Q9Y2A7); experiment: as above
Sra1/Nap1 dimer, sequence (Q7L576 whole entry, one chain of several): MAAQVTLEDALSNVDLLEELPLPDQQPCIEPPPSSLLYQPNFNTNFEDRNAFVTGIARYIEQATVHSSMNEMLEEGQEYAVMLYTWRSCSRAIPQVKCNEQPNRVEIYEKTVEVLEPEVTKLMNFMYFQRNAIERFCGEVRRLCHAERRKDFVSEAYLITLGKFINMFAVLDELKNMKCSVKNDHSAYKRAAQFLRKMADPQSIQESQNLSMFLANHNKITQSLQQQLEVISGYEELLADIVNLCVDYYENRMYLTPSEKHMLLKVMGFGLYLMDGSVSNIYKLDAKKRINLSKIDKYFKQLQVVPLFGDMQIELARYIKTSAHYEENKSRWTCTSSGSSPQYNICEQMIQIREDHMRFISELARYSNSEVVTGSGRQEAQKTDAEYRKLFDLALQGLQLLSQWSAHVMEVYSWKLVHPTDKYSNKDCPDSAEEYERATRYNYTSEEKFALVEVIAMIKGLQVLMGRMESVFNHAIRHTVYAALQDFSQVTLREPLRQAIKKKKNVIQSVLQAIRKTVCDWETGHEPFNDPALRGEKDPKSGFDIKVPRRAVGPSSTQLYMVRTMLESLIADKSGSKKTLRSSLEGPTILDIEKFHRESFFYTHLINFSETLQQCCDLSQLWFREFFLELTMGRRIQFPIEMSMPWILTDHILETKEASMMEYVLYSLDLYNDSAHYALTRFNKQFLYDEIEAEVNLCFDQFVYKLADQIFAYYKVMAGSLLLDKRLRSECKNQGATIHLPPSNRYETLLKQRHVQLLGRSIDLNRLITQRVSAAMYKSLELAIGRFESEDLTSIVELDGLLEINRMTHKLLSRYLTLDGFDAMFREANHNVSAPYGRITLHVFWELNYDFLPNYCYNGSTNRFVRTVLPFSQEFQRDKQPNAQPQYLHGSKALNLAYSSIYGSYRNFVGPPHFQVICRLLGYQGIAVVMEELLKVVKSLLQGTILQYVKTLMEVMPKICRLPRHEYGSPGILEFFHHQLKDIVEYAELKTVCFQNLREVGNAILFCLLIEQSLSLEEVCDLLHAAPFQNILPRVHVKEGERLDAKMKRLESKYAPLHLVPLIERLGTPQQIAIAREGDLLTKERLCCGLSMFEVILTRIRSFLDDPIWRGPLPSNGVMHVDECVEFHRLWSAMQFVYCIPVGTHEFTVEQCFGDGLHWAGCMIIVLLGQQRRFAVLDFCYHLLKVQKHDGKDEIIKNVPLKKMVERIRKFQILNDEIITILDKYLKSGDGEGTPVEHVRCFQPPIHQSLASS

[3] = target: Sra1 (human, UniProt Q7L576 1-1253); experiment: as above
Sra1, sequence (Q7L576 whole entry): as the sequence (Q7L576 whole entry, one chain of several) above

[4] = target: ∆WRC230 with Sra1 W845A/Y849A (∆M#3) (human, UniProt Q7L576;Q9Y2A7;Q92558;Q9NYB9;Q8WUW1, W845A | Y849A); experiment: pull-down
∆WRC230 with Sra1 W845A/Y849A (∆M#3), sequence (Q7L576 whole entry W845A/Y849A, one chain of several): as the sequence (Q7L576 whole entry, one chain of several) above, with W845A, Y849A counted along it

B1: Abi2(1-158) (domain or fragment)
chain: MAELQMLLEEEIPGGRRALFDSYTNLERVADYCENNYIQSADKQRALEETKAYTTQSLASVAYLINTLANNVLQMLDIQASQLRRMESSINHISQTVDIHKEKVARREIGILTTNKNTSRTHKIIAPANLERPVRYIRKPIDYTILDDIGHGVKWLLR
Question: Does B1 bind [1]?
Answer: Result: binds

B2: WAVE1(1-230)/Abi2(1-158)/HSPC300 trimer (complex)
chain 1: MPLVKRNIDPRHLCHTALPRGIKNELECVTNISLANIIRQLSSLSKYAEDIFGELFNEAHSFSFRVNSLQERVDRLSVSVTQLDPKEEELSLQDITMRKAFRSSTIQDQQLFDRKTLPIPLQETYDVCEQPPPLNILTPYRDDGKEGLKFYTNPSYFFDLWKEKMLQDTEDKRKEKRKQKQKNLDRPHEPEKVPRAPHDRRREWQKLAQGPELAEDDANLLHKHIEVANG
chain 2: MAELQMLLEEEIPGGRRALFDSYTNLERVADYCENNYIQSADKQRALEETKAYTTQSLASVAYLINTLANNVLQMLDIQASQLRRMESSINHISQTVDIHKEKVARREIGILTTNKNTSRTHKIIAPANLERPVRYIRKPIDYTILDDIGHGVKWLLR
chain 3: MAGQEDPVQREIHQDWANREYIEIITSSIKKIADFLNSFDMSCRSRLATLNEKLTALERRIEYIEARVTKGETLT
Question: Does B2 bind [2]?
Answer: Result: binds

B3: Nap1 (natural protein)
chain: MSRSVLQPSQQKLAEKLTILNDRGVGMLTRLYNIKKACGDPKAKPSYLIDKNLESAVKFIVRKFPAVETRNNNQQLAQLQKEKSEILKNLALYYFTFVDVMEFKDHVCELLNTIDVCQVFFDITVNFDLTKNYLDLIITYTTLMILLSRIEERKAIIGLYNYAHEMTHGASDREYPRLGQMIVDYENPLKKMMEEFVPHSKSLSDALISLQMVYPRRNLSADQWRNAQLLSLISAPSTMLNPAQSDTMPCEYLSLDAMEKWIIFGFILCHGILNTDATALNLWKLALQSSSCLSLFRDEVFHIHKAAEDLFVNIRGYNKRINDIRECKEAAVSHAGSMHRERRKFLRSALKELATVLSDQPGLLGPKALFVFMALSFARDEIIWLLRHADNMPKKSADDFIDKHIAELIFYMEELRAHVRKYGPVMQRYYVQYLSGFDAVVLNELVQNLSVCPEDESIIMSSFVNTMTSLSVKQVEDGEVFDFRGMRLDWFRLQAYTSVSKASLGLADHRELGKMMNTIIFHTKMVDSLVEMLVETSDLSIFCFYSRAFEKMFQQCLELPSQSRYSIAFPLLCTHFMSCTHELCPEERHHIGDRSLSLCNMFLDEMAKQARNLITDICTEQCTLSDQLLPKHCAKTISQAVNKKSKKQTGKKGEPEREKPGVESMRKNRLVVTNLDKLHTALSELCFSINYVPNMVVWEHTFTPREYLTSHLEIRFTKSIVGMTMYNQATQEIAKPSELLTSVRAYMTVLQSIENYVQIDITRVFNNVLLQQTQHLDSHGEPTITSLYTNWYLETLLRQVSNGHIAYFPAMKAFVNLPTENELTFNAEEYSDISEMRSLSELLGPYGMKFLSESLMWHISSQVAELKKLVVENVDVLTQMRTSFDKPDQMAALFKRLSSVDSVLKRMTIIGVILSFRSLAQEALRDVLSYHIPFLVSSIEDFKDHIPRETDMKVAMNVYELSSAAGLPCEIDPALVVALSSQKSENISPEEEYKIACLLMVFVAVSLPTLASNVMSQYSPAIEGHCNNIHCLAKAINQIAAALFTIHKGSIEDRLKEFLALASSSLLKIGQETDKTTTRNRESVYLLLDMIVQESPFLTMDLLESCFPYVLLRNAYHAVYKQSVTSSA
Question: Does B3 bind [3]?
Answer: Result: binds

B4: GST-Arf1 (Arf1^∆N17) (natural protein)
chain: not shown
Question: Does B4 bind [4]?
Answer: Result: binds

B5: HSPC300 (natural protein)
chain: MAGQEDPVQREIHQDWANREYIEIITSSIKKIADFLNSFDMSCRSRLATLNEKLTALERRIEYIEARVTKGETLT
Question: Does B5 bind [1]?
Answer: Result: binds
